Results on 125 sequences are retold here after the supplement of paper PMC9112550, “Optimization of the antimicrobial peptide Bac7 by deep mutational scanning” (BMC Biology, 2022).

The test system of the data set is Escherichia coli TOP10. As to the kind of experiment: shrunken log2 fold change of peptide-encoding DNA abundance (4.5 h post-induction vs induction); higher = less antimicrobial activity (less host growth inhibition). Particulars: time post-induction: 4.5 h; library: site-saturation at positions 5, 18, 19, 20.
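Further: peptides expressed intracellularly from a pBAD plasmid library in pooled LB shake-flask culture, induced with 0.3% L-arabinose, DNA abundance read by NGS, three biological replicates, DESeq2 with apeglm shrinkage.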

For RRIRERPPRLPRPRPRPNSGPRP, the “shrunken log2 fold change” value was -0.463.
Then RRIRCRPPRLPRPRPRPQWIPRP, with -0.692; and RRIRDRPPRLPRPRPRPHLCPRP, with -0.0584; and RRIRRRPPRLPRPRPRPDGDPRP, with 0.485.
RRIRERPPRLPRPRPRPYDIPRP: the “shrunken log2 fold change” value was -0.136.
Then RRIRCRPPRLPRPRPRPCYDPRP, with -0.316; and RRIRERPPRLPRPRPRPDYDPRP, with -0.021.
The value for RRIRSRPPRLPRPRPRPCNQPRP was -0.391; that for RRIRDRPPRLPRPRPRPIWLPRP was 0.0516; that for RRIRKRPPRLPRPRPRPMADPRP was -0.000921.
Then RRIRRRPPRLPRPRPRPYSCPRP, with -0.0958.
For RRIRMRPPRLPRPRPRPHQEPRP, the “shrunken log2 fold change” value was found to be 0.018.
Then RRIRLRPPRLPRPRPRPWGRPRP, with -0.0734; and RRIRKRPPRLPRPRPRPNNRPRP, with 0.0938; and RRIRPRPPRLPRPRPRPENLPRP, with -0.278.
Take RRIRYRPPRLPRPRPRPHILPRP: the “shrunken log2 fold change” value was -0.288.
RRIRKRPPRLPRPRPRPRNKPRP: the “shrunken log2 fold change” value was -0.08.
The value for RRIRYRPPRLPRPRPRPASDPRP was -0.348.
Consider RRIRYRPPRLPRPRPRPIGNPRP, for which the “shrunken log2 fold change” value turned out to be 0.167.
With RRIRVRPPRLPRPRPRPGWDPRP, the “shrunken log2 fold change” value stood at 0.243.
Then RRIRWRPPRLPRPRPRPPKWPRP, with 0.627; and RRIRDRPPRLPRPRPRPQYQPRP, with -0.156; and RRIRWRPPRLPRPRPRPNPRPRP, with 0.452.
For RRIRKRPPRLPRPRPRPHYQPRP, the “shrunken log2 fold change” value is -0.101.
In the case of RRIRQRPPRLPRPRPRPVLHPRP, the “shrunken log2 fold change” value is -0.149.
Regarding RRIRHRPPRLPRPRPRPFDFPRP, the “shrunken log2 fold change” value was -1.21.
Consider RRIRSRPPRLPRPRPRPIDDPRP, for which the “shrunken log2 fold change” value is -0.00277.
The value for RRIRTRPPRLPRPRPRPHRDPRP was 0.129; that for RRIRTRPPRLPRPRPRPNDSPRP was -0.00242.
For RRIRMRPPRLPRPRPRPKDEPRP, the “shrunken log2 fold change” value was determined as 1.75.
Then RRIRTRPPRLPRPRPRPGHFPRP, with -0.215; and RRIRTRPPRLPRPRPRPAEFPRP, with -0.355; and RRIRTRPPRLPRPRPRPKSSPRP, with -0.0371.
The value for RRIRNRPPRLPRPRPRPDIQPRP was -0.0597.
The value for RRIRPRPPRLPRPRPRPCRAPRP was 0.0858; that for RRIRIRPPRLPRPRPRPVAGPRP was -0.0858.
Regarding RRIRNRPPRLPRPRPRPDSLPRP, the “shrunken log2 fold change” value came out at 0.0321.
Then RRIRGRPPRLPRPRPRPQICPRP, with 0.156; and RRIRQRPPRLPRPRPRPYDTPRP, with -0.307.
The value for RRIRMRPPRLPRPRPRPSLGPRP was 0.193; that for RRIRYRPPRLPRPRPRPTGMPRP was 0.0495; that for RRIRIRPPRLPRPRPRPDLNPRP was -0.211.
The value for RRIRFRPPRLPRPRPRPGAMPRP was 0.0505.
For the sequence RRIRIRPPRLPRPRPRPKWPPRP, the “shrunken log2 fold change” value worked out at 0.0341.
As for RRIRNRPPRLPRPRPRPKRRPRP, the “shrunken log2 fold change” value stood at 0.00183.
Regarding RRIRNRPPRLPRPRPRPCQCPRP, the “shrunken log2 fold change” value was -0.00992.
Then RRIRIRPPRLPRPRPRPKTGPRP, with -0.388.
The value for RRIRNRPPRLPRPRPRPLQGPRP was 0.0149; that for RRIRFRPPRLPRPRPRPVLRPRP was 0.113.
Then RRIRARPPRLPRPRPRPAMMPRP, with 0.511; and RRIRKRPPRLPRPRPRPSNYPRP, with -0.312; and RRIRVRPPRLPRPRPRPLMNPRP, with -0.649.
For RRIRSRPPRLPRPRPRPRWLPRP, the “shrunken log2 fold change” value came to 0.297.
Regarding RRIRVRPPRLPRPRPRPENQPRP, the “shrunken log2 fold change” value was -0.008.
Then RRIRLRPPRLPRPRPRPYDIPRP, with 0.00601; and RRIRTRPPRLPRPRPRPCWCPRP, with -0.0474.
For the sequence RRIRERPPRLPRPRPRPDYWPRP, the “shrunken log2 fold change” value was -0.276.
As for RRIRTRPPRLPRPRPRPRCWPRP, the “shrunken log2 fold change” value is 0.386.
The value for RRIRGRPPRLPRPRPRPLVDPRP was 1.1; that for RRIRLRPPRLPRPRPRPWHNPRP was -0.00136.
Take RRIRARPPRLPRPRPRPDHWPRP: the “shrunken log2 fold change” value is 0.0446.
The value for RRIRTRPPRLPRPRPRPFGSPRP was 0.0169; that for RRIRARPPRLPRPRPRPTHLPRP was 0.326.
As for RRIRYRPPRLPRPRPRPLSWPRP, the “shrunken log2 fold change” value was -0.0279.
As to RRIRTRPPRLPRPRPRPFVTPRP, the “shrunken log2 fold change” value was -0.298.
Then RRIRGRPPRLPRPRPRPGPYPRP, with 0.324.
Take RRIRFRPPRLPRPRPRPQAPPRP: the “shrunken log2 fold change” value came out at 0.0778.
Take RRIRCRPPRLPRPRPRPRSYPRP: the “shrunken log2 fold change” value was -0.233.
Take RRIRTRPPRLPRPRPRPPYWPRP: the “shrunken log2 fold change” value was 0.0831.
RRIRGRPPRLPRPRPRPYHNPRP: the “shrunken log2 fold change” value was -0.267.
Consider RRIRMRPPRLPRPRPRPQYMPRP, for which the “shrunken log2 fold change” value was -0.969.
Then RRIRCRPPRLPRPRPRPPTMPRP, with 0.143.
Turning to RRIRRRPPRLPRPRPRPEVFPRP, the “shrunken log2 fold change” value is 0.0496.
For RRIRKRPPRLPRPRPRPSRFPRP, the “shrunken log2 fold change” value is 1.06.
For RRIRIRPPRLPRPRPRPQMPPRP, the “shrunken log2 fold change” value is -0.662.
Then RRIRQRPPRLPRPRPRPYKNPRP, with -1.02; and RRIRYRPPRLPRPRPRPICSPRP, with 0.0329; and RRIRHRPPRLPRPRPRPGQKPRP, with 0.00748.
Turning to RRIRPRPPRLPRPRPRPSSAPRP, the “shrunken log2 fold change” value is 0.0846.
As for RRIRTRPPRLPRPRPRPTMFPRP, the “shrunken log2 fold change” value was -0.148.
Then RRIRHRPPRLPRPRPRPCFYPRP, with -0.356.
Then RRIRRRPPRLPRPRPRPWYCPRP, with -0.21.
Then RRIRHRPPRLPRPRPRPMFHPRP, with -0.509; and RRIRPRPPRLPRPRPRPQRWPRP, with 0.156; and RRIRNRPPRLPRPRPRPCCTPRP, with 2.47.
Turning to RRIRNRPPRLPRPRPRPLPIPRP, the “shrunken log2 fold change” value was -0.299.
The value for RRIRERPPRLPRPRPRPMVHPRP was -0.281; that for RRIRHRPPRLPRPRPRPDRRPRP was -0.118.
Then RRIRFRPPRLPRPRPRPEMRPRP, with 0.244; and RRIRLRPPRLPRPRPRPDCGPRP, with 0.0932.
Then RRIRTRPPRLPRPRPRPEWKPRP, with -0.076; and RRIRMRPPRLPRPRPRPGRRPRP, with 0.724; and RRIRKRPPRLPRPRPRPKMEPRP, with 0.368.
On to RRIRARPPRLPRPRPRPTKKPRP, for which the “shrunken log2 fold change” value worked out at 0.0778.
Take RRIRCRPPRLPRPRPRPWRKPRP: the “shrunken log2 fold change” value was found to be 0.119.
Turning to RRIRYRPPRLPRPRPRPEIDPRP, the “shrunken log2 fold change” value is -0.0347.
RRIRFRPPRLPRPRPRPHFTPRP: the “shrunken log2 fold change” value was -0.489.
The value for RRIRCRPPRLPRPRPRPKPCPRP was 0.084; that for RRIRERPPRLPRPRPRPEPMPRP was -0.0016; that for RRIRDRPPRLPRPRPRPCCTPRP was 0.149.
For the sequence RRIRRRPPRLPRPRPRPLYYPRP, the “shrunken log2 fold change” value was -0.259.
The value for RRIRERPPRLPRPRPRPAEQPRP was -0.163.
For RRIRGRPPRLPRPRPRPMCHPRP, the “shrunken log2 fold change” value was 0.874.
RRIRVRPPRLPRPRPRPPYYPRP: the “shrunken log2 fold change” value was -0.363.
Then RRIRDRPPRLPRPRPRPSEEPRP, with 0.277; and RRIRARPPRLPRPRPRPRDEPRP, with 1.06; and RRIRQRPPRLPRPRPRPYVTPRP, with -0.253.
The value for RRIRKRPPRLPRPRPRPCMCPRP was -0.0956; that for RRIRYRPPRLPRPRPRPAGYPRP was 0.0815; that for RRIRSRPPRLPRPRPRPADTPRP was -0.0432.
For the sequence RRIRVRPPRLPRPRPRPFQLPRP, the “shrunken log2 fold change” value was 0.142.
Then RRIRGRPPRLPRPRPRPKKQPRP, with 0.0981; and RRIRIRPPRLPRPRPRPADSPRP, with -0.325; and RRIRYRPPRLPRPRPRPNFGPRP, with -0.126.
With RRIRKRPPRLPRPRPRPAVWPRP, the “shrunken log2 fold change” value came to 0.563.
Then RRIRARPPRLPRPRPRPAHWPRP, with 0.535.
Then RRIRKRPPRLPRPRPRPPHAPRP, with 0.728.
RRIRTRPPRLPRPRPRPLWNPRP: the “shrunken log2 fold change” value was -0.44.
Then RRIRMRPPRLPRPRPRPEEFPRP, with 0.0141; and RRIRYRPPRLPRPRPRPTESPRP, with 0.0538; and RRIRERPPRLPRPRPRPPCHPRP, with -0.251.
The value for RRIRNRPPRLPRPRPRPELQPRP was -0.0211; that for RRIRARPPRLPRPRPRPYNYPRP was 1.34.
Then RRIRHRPPRLPRPRPRPTQRPRP, with 0.462; and RRIRFRPPRLPRPRPRPMAWPRP, with -0.0344.
